This series in a line: yeast display, Sf9 membrane polyspecificity reagent, FACS + sequencing; frameworks hold sequencing errors. The gist of the method: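 Nanobodies came from a synthetic yeast display library in Saccharomyces cerevisiae BJ5465, induced with galactose for 36–48 hours and stained for 1 hour at 4 °C with 10% biotinylated, detergent-solubilized Sf9 membrane reagent. Cells were enriched on streptavidin microbeads and then FACS-sorted, with low and high (top ~1%) gates set on anti-HA fluorescence for expression and streptavidin fluorescence for reagent binding. Each polyreactivity label reflects the gate a clone came from. Genes were amplified by colony PCR, sequenced by MiSeq 2 × 250 and filtered by CDR length.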
For “QVQLVESGGGLVQAGGSLRLSCDASGRIFAYYTMGWNRQAPGKERELVAAINQSGGSTYYADSVKGRITISRDNAKNTDYLQMNILKPEDTAVYYCAAKRYSMYARRYAYVYWGQVTQVTVSS”, the “polyreactivity (PSR sort gate)” value is “low polyreactivity”. “QVQLVESGGGLVQAGGSLRLSCAASGSTFAYNTMGWYRQAPGKERELVAAISQRGGSTYADSVKGRFTISRDNAKNTVYLQMNSLKPEETAVYYCAAVGYTYKFDYWGQGTQVTVSS”: the “polyreactivity (PSR sort gate)” value is recorded as “low polyreactivity”. For “QVQHVESGGGLVQAGGSLRLSCAASGNIFYTNAMGWYRQATGKERELVAAISGSGGRTYYADSVKGRFTISRDNAKNTVYLQMNSLKPEDTAVYYCNAVRRDYYDRTYGYWGQGTQVTVSS”, the “polyreactivity (PSR sort gate)” value was “low polyreactivity”. With “QVQLVESGGGLVQAGGSLRLSCAASGSIFDYYAMGWYRQAPGKERELVASITWSGGRTSYADSVKGRFTISRDNAKNTVYLQMNSLKPEDTAVYYCAAKLWSYAYQHKRVWYYYWGQGTQVTVSS” the entry was “high polyreactivity”. On to “QVQLVESGGGLVQAGGSLRLSCAASGNTIIDYAMGWYRQPPGKERELVASITSGGGSTYYADSVKGRFTISRDNAKNTVYLQMNSLKPVDTAVYYCAAERYYSEAIFRSYDYWGQGTQVTVSS”, for which the “polyreactivity (PSR sort gate)” value was “low polyreactivity”. For the sequence “QLQLVESGGGLVQAGGSLRLSCAASGIIFRWYAMGFYRQAPGKERELVAAITSSGGRTYYADSVKGRFTISRDNAKNTVYLPMNILKPEDTAVYYCAASYYIVGCDPYDYWGQGTQVTVSS”, the “polyreactivity (PSR sort gate)” value is recorded as “high polyreactivity”. “QVQLVESGGGLVQAGGSLRLSCAASGSIFVDTAMGWYRQAPGKERELVAAINWSGGSTYYADSVKGRFTISRDNAQNTVYLQMNSLKPEDTAVYYCYAARPGQTWDEHSWYEYWGQGTQVTVSS”: the “polyreactivity (PSR sort gate)” value was “low polyreactivity”. The value for “QVQLEESGGGLVQAGGSLRLSCAATGSTFGYAMGWYSQATGKEGEWVAALTSTGGSTYYADSLKGRFTISRDKAKNTVDLQMNSLKPYDTAVYYCAADAYWIRSRFLYRIRYNYWGQGTQVTVSS” was “high polyreactivity”; that for “QVQLVESGGGLVQAGGSLRLSCAASGRIFRANAMGWYRQAPGKERELVAGISYRGGSTYYADSVKGRFTISRDNAKNTVYLQMNSLKPEDTAVYYCAVRSSPELRYHYEYWGQGTQVTVSS” was “low polyreactivity”.

For “QDQHVESGGGLVQAGGSLRLSCAASGSTFGDNAMGWYRQAPGKERELVAAISRGGRTYYADSVKGRFTISRDNAKNTVYLQMNSLKPEDTAVYYCAATSAYRGYWVLRGLSYDYWGQGTQVTVSS”, the “polyreactivity (PSR sort gate)” value is on record as “high polyreactivity”. Consider “HVQLVESGGGLFQAGGSLRLICAASGSTFGFYAMGWYRQAPGKERELVAAISRRTGSTYYADSVKGRFTISRDNAKNTVYLQMNSLKPEDTAVYYCNTDQSQKTVGYDYWGQGTQVTVSS”, for which the “polyreactivity (PSR sort gate)” value is “high polyreactivity”.

“QVQLVESGGGLVQAGGSLRLSCAASGGTFDVYAMGWYRQAPGKERELVAAISIGGSTYYADSVKGRFTISRDNAKNTVSLQMNSLKPEDTAVYYCAADVNSRYSWRRWYAYDYWGQGTQVTVSS”: the “polyreactivity (PSR sort gate)” value is listed as “high polyreactivity”. As for “QVQLVESGGGIVQAGGSLRLICAASGITFTVYAMGWDRTAPWKARELVAASCSSGSTTYADSVKGRFTFSRDNAKNTVYLQMNSVKPQDPAVYYCAAEGYYRFSTAYFRKKYEYWGQGTQVTVSS”, the “polyreactivity (PSR sort gate)” value is reported as “low polyreactivity”. As for “QVQLVESGGGLVQAGGSLRLSCAASGRTFRVNAMGWYRQAPGKERELVAAITWNGGSTYYADSVKGRFTISRDNAKNTVYLQMNSLKPEDTAVYYCAAKGARYTSRGYYWGQGTQVTVSS”, the “polyreactivity (PSR sort gate)” value is on record as “high polyreactivity”. The value for “QVQLVESGGGLVQAGGSLRLICAASGLTFGDYTMGWYRQAPGKERELVAAISTSGGSTYYADSVKGRFTISRDNAKKTVYLLMNSLKPEDTAVYYCNARRTHTRSHYYYWGQGTQVTVSS” was “high polyreactivity”; that for “QVQLVESVGGLVEAGGSLRLSCASSGFISSHYAMGWYRQAPGKESELVAAITSGGSTYYADSVKGRFTISRDNAKNTVYLQMNSLKPEDTAVYYCAAYYRRWPRRYDYWGQGTQVTVSS” was “high polyreactivity”; that for “QVQLVESVRGLDQAGGSLRLSCAASGSIFDSNAMGSYRQATGKERELVAAITGSGTSTYYADSVKGRFTISRDNAKNTVYLQMNILKPEDTAVYYCARDSLQVFYTYGSDDYWGQGTQVTVSS” was “low polyreactivity”. With “QVQLVESGGGLVQAGGSLRLSCAASGSIFRAYVMGWYRQAPGTERELVAAISRGGSTNYADSVKGRFTISRDNAKNTVFLQMNSLKPEDTAVYYCNAGRGLREDDYWGQGTQVTVSS” the entry was “low polyreactivity”. The value for “QVQLVESGVGLVQAGGSLRLSCAASGRTFRANAMGWYRQAPGKERELVAAITWDGGSTYYADSVKGRFTISRDNAKNTVYLLMYSLKPEDTAVYYCNTYPYLWGQGTQVTLSS” was “low polyreactivity”; that for “QVQLVESGGGLVQAGGSLRLSCAASGSIFFRNAMGWYRQAPGKERELVAAITFSGGRTYYADSVKGRFTISRDTANNTVYLQMNSMKPEDTAVYYCAGRRSYTYARYDYWGQGTQVTVSS” was “high polyreactivity”; that for “QVQLVESGGGLVQAGGSLRLSCAASGSIFDYYAMGWYRQAPGKERELVAAISWSGGSTYYADSVKGRFTISRDNAKNTVYLQMNSLKPEDTAVYYCAALSLAYHEYDYWGLGTQVTVSS” was “high polyreactivity”. For the sequence “QVQLVESGGGLVQAGGSLRLSCAASGSTFAYNAMGWYRQAPGKERELVARISSSGDITYYADSVKGRFTISRDNAKNTVYLQMNCLKPEDTAVYYCAKRYLTRYKGYYYWGQGTQVTVSS”, the “polyreactivity (PSR sort gate)” value was “high polyreactivity”. With “QVQLVESGGCLVQAGGSLRLSCAASGPTFSKANAMGWYRQAPGKERELVAAITDGGSTYADSVKGRFTISRDNAKNTVYLQMYSMKPEDTAVYYCAKDTEVFYDSSYDYWGHGTQVTVSS” the entry was “low polyreactivity”; with “QVQLVESGGGLVQAGGSLRLSCADSGRIFHTYAMGWYRHAPGKERELVAAISKGGSGTYYADSVKGRFTISRDNAKNTVYLQRNSLKPEDTAVYYCAADLTYHYPRYITYEYWGQRTQVTVSS”, “low polyreactivity”; with “QVQIVESGGGLVQAGGSLRLSCAASGRTLYQYSMGWYRQAPGKERELVAAITTSTGNTYYADSVKARFTISRDNAKYTVYSQMNSLKPEDTAVYYCAADTVWRLDYWGQGTQVTVSS”, “low polyreactivity”.

On to “QVQLVESGGGLVQAGGSLRLSCAASGRIFDWYAMGWYRQAPGKERELVAAISTSGANTYYADSVKGRITISRDNAKNTVYLQMNSLKPEDSGVYYCATDPYQPYEGDYWGQGTQVTVSS”, for which the “polyreactivity (PSR sort gate)” value is “low polyreactivity”. With “QVQLVESGGGLVQAGGSLRLSCAASGSTFTINAMGWYRQAPGKERELVAAISRSGGSTFYADSVKGRFTISRDNAKNTVYLQMNSLKPEDTAVYYCAAGYRGTAYRYGYCGQGTQVTVSS”, the “polyreactivity (PSR sort gate)” value is reported as “high polyreactivity”. In the case of “QDQLVESGGGIVQAGGILRLSCASSGFIFRGYAMGWYRQAPGKEWELVAAINSGDSTNYADSVKGRFTISRDNAKNTVSLQMNSLKREDTAVYYCAASIYAALNGGEGYDYWGQGTQVTVSS”, the “polyreactivity (PSR sort gate)” value is given as “low polyreactivity”. On to “QVQLVESGGGLVQAGGSLRLSCAASGFIFSHYTMGWYRQAPGKERELVAGISWSGGNTYYADSVKGRFTISRDNAKNTVYLQMISLKPEDTAVYYCNADWIGVPLAYDYWGQGTQVTVSS”, for which the “polyreactivity (PSR sort gate)” value is “low polyreactivity”. “QVQLVESGGGLVQAGGSLRLSCAASGRTFYVNTMGWYRQAPGKEREFVAAISYSGGRTYYADSVKGRFTISRDNAKNTVYLQMNSLKPEDTAVYYCATRINSWSAYTKYDYWGQGTQVTVSS”: the “polyreactivity (PSR sort gate)” value is “high polyreactivity”.

(Values after the nanobody polyreactivity screen of Harvey et al. (2022).)
